These results are taken from paper PMC6230950.

The target in test [1] is human TB‐PIGS:ΔXF (Ag85B fused to a truncated human γ1 chain and the IgM μ tailpiece), produced in g (M. tuberculosis | human | not stated) (UniProt P9WQP1). Briefly: SPR; Biacore X100, HBS-EP+; TB-PIGS captured on protein A coupled to a CM5 chip; FcγR as analyte, 40 μL/min; affinity of one FcγR for a single arm.
In test [2] the target is Human TB-PIGS produced in wild-type Nicotiana benthamiana (Ag85B - truncated human γ1 chain - IgM tailpiece) (Mycobacterium tuberculosis | human | not stated) (UniProt P9WQP1). Kind of test: SPR; Biacore X100; protein A on a CM5 chip, IgG or TB-PIGS captured; five-six concentrations of human CD16a as analyte; HBS-EP+; 40 uL/min, contact 90 s, dissociation 300 s; two-state binding interaction model.

Test [3] addresses Human TB-PIGS produced in glyco-engineered ΔXF Nicotiana benthamiana (Mycobacterium tuberculosis | human | not stated) (UniProt P9WQP1). Kind of test: SPR; Biacore X100; protein A on a CM5 chip, IgG or TB-PIGS captured; human CD32a as analyte, 4000 nM to 125 nM in 2-fold dilutions; HBS-EP+; 40 uL/min, contact 90 s; steady-state affinity analysis. On the technique in general: SPR reads the build-up and loss of mass on a sensor chip optically.

Test [4] deals with Human TB-PIGS produced in wild-type Nicotiana benthamiana (Ag85B - truncated human γ1 chain - IgM tailpiece) (Mycobacterium tuberculosis | human | not stated) (UniProt P9WQP1). The description is as above.
Test [5] concerns the target human TB‐PIGS (Ag85B fused to a truncated human γ1 chain and the IgM μ tailpiece), produced in wild‐type N. benthamiana (M. tuberculosis | human | not stated) (UniProt P9WQP1). Kind of test: native gel or EMSA. In general terms: In EMSA bound probe runs differently from free probe, usually more slowly.
Test [6] has as its target murine TB‐PIGS (Ag85B fused to a truncated mouse γ2a chain and the IgM μ tailpiece), produced in wil (M. tuberculosis | mouse | not stated) (UniProt P9WQP1). Kind of test: native gel or EMSA.
Test [7] has as its target Murine TB-PIGS produced in glyco-engineered ΔXF Nicotiana benthamiana (Mycobacterium tuberculosis | mouse | not stated) (UniProt P9WQP1). Kind of test: SPR; Biacore X100; protein A amine-coupled on a CM5 chip, IgG or TB-PIGS captured on it; CD64 (human or mouse) as analyte, 240 nM down to 1.875 nM in 1:2 dilutions; HBS-EP+; 40 uL/min, contact 135 s, dissociation 600 s; 1:1 model, but for human TB-PIGS from wild-type plants the 'Heterogeneous antibody with aglycosylation' model (two sets of values).

For test [8], the target named is Murine TB-PIGS produced in wild-type Nicotiana benthamiana (Ag85B - truncated mouse γ2a chain - IgM tailpiece) (Mycobacterium tuberculosis | mouse | not stated) (UniProt P9WQP1). The test is described as above.

Regarding “human CD16a (FcγRIIIa) (from UniProt P08637 17-208) (receptor)”, the Kd in test [1] was 19.7 nM; in test [2], 279 nM.

For the molecule “human CD32a (FcγRIIa) (from UniProt P12318 34-217) (receptor)”, the Kd in test [3] is 2160 nM; in test [4] it was 4210 nM.

With “human CD64 (FcγRI) (from UniProt P12314 16-292) (receptor)”, the dissociation constant Kd in test [1] was 0.41 nM.

In test [5], “human TB‐PIGS (Ag85B fused to a truncated human γ1 chain and the IgM μ tailpiece), produced in wild‐type N. benthamiana (from UniProt P9WQP1 41-325) (Fc fusion)” had a percent of the sample as polymers of 35 to 60%.

For “murine TB‐PIGS (Ag85B fused to a truncated mouse γ2a chain and the IgM μ tailpiece), produced in wil (from UniProt P9WQP1 41-325) (Fc fusion)”, in test [6], the percent of the sample as polymers fell in the range of 5 to 20%.

B1: mouse CD64 (FcγRI) (receptor)
chain: EVVNATKAVITLQPPWVSIFQKENVTLWCEGPHLPGDSSTQWFINGTAVQISTPSYSIPEASFQDSGEYRCQIGSSMPSDPVQLQIHNDWLLLQASRRVLTEGEPLALRCHGWKNKLVYNVVFYRNGKSFQFSSDSEVAILKTNLSHSGIYHCSGTGRHRYTSAGVSITVKELFTTPVLRASVSSPFPEGSLVTLNCETNLLLQRPGLQLHFSFYVGSKILEYRNTSSEYHIARAEREDAGFYWCEVATEDSSVLKRSPELELQVLGPQSSAP
On to B1, for which, in test [7], the Kd was 16.8 nM, the koff is 0.0231 s⁻¹ and the kon was 1.38e+06 M⁻¹ s⁻¹. In test [8], this molecule returned a Kd of 50 nM, a koff of 0.0248 s⁻¹ and a kon of 500000 M⁻¹ s⁻¹.

The term Kd denotes the free concentration of one partner at which half of the binding sites on the other are occupied at equilibrium, for simple one-to-one binding. One may read the koff as the first-order rate constant of dissociation. A lower koff goes with slow dissociation. A word on the kon: it is the second-order rate constant of association. The low end stands for slower complex formation, the high end for faster complex formation.
